A short description of data set [1]: DNA polymerase activity in vitro of BALF5 deletion polypeptides. It is filed as biochemical. To be noted: with or without BMRF1, high and low ionic strength.
In a further data set the target is T1, GST-BMRF1(1-303) (Epstein-Barr virus, UniProt P03191).
T1 construct: A GST fusion with BMRF1 residues 1-303 was constructed and expressed in E. coli BL21*DE3; made in house; host or cells: E. coli BL21*DE3
T1 sequence (P03191 1-303): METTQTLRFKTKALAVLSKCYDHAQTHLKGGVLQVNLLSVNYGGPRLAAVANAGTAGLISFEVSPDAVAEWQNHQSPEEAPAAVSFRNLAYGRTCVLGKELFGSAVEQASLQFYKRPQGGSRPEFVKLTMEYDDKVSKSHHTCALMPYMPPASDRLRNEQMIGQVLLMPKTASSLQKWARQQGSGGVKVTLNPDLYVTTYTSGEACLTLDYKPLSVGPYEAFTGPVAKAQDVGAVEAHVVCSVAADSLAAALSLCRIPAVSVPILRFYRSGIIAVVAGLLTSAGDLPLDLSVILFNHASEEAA
In words: Binding of radiolabeled BALF5-deletion polypeptides to GST-BMRF1(1-303). Particulars: 100 mM ammonium sulfate; [35S]-methionine labeled in vitro translated polypeptides. The method, then: To determine if the extreme carboxyl terminus of the EBV BALF5 subunit is necessary for functional interaction with BMRF1, a series of deletions of the BALF5 open reading frame was constructed in the pYES-X2 vector and [^35S]-methionine labeled polypeptides were expressed by in vitro transcription-translation as described (Kiehl, A. and D. I. Dorsky, J Virol, 1995, 69(3): p. 1669-77). These radiolabeled BALF5-deletion polypeptides were then assayed for binding to GST-BMRF1(1-303) in 100 mM ammonium sulfate. In vitro translated BALF5 bound to GST-BMRF1(1-303) but not to GST alone.

Data set [2] deals with activated calf thymus (CT) DNA. In words: DNA polymerase elongation activity of purified BALF5 on activated calf thymus DNA. It is filed as biochemical. Particulars: BMRF1 at concentrations required for stimulation at high-salt. The method, then:
When assayed in the presence of BMRF1, its activity on CT DNA at 100 mM ammonium sulfate was greater than 100-fold increased over its activity alone, in the absence of salt.

The conditions of data set [3]: monomeric form of BMRF1; cited from earlier work.

Where a chain is given by its changes, count along the chain named. Names and notes keep the numbering of the source.

B1: A107-550: BALF5 with internal deletion of residues 107-550 (protein)
chain: MASASLTMSGGLFYNPFLRPNKGLLKKPDKEYLRLIPKCFQTPGAAGVVDVRGPQPPLCFYQDSLTVVGGDEDGKGMWWRQRAQEGTARPEADTHGSPLDFHVYDILETVYTHILPMPSASDRDGYQGATVIQPLSGFYNSPVLVVDFASLYPSIIQAHNLCYSTMITPGEEHRLAGLRPGEDYESFRLTGGVYHFVKKHVHESFLASLLTSWLAKRKAIKKLLAACEDPRQRTILDKQQLAIKCTCNAVYGFTGVANGLFPCLSIAETVTLQGRTMLERAKAFVEALSPANLQALAPSPDAWAPLNPEGQLRVIYGDTDSLFIECRGFSESETLRFADALAAHTTRSLFVAPISLEAEKTFSCLMLITKKRYVGVLTDGKTLMKGVELVRKTACKFVQTRCRRVLDLVLADARVKEAASLLSHRPFQESFTQGLPVGFLPVIDILNQAYTDLREGRVPMGELCFSTELSRKLSAYKSTQMPHLAVYQKFVERNEELPQIHDRIQYVFVEPKGGVKGARKTEMAEDPAYAERHGVPVAVDHYFDKLLQGAANILQCLFDNNSGAALSVLQNFTARPPF
In the case of B1, the “DNA polymerase activity in vitro” value in data set [1] was “catalytically inactive”. In addition, the “binding to GST-BMRF1(1-303)” value with GST-BMRF1(1-303) is “did not prevent binding”.

B2: C550: BALF5 with deletion of the carboxyl terminal 465 residues (protein)
chain: MASASLTMSGGLFYNPFLRPNKGLLKKPDKEYLRLIPKCFQTPGAAGVVDVRGPQPPLCFYQDSLTVVGGDEDGKGMWWRQRAQEGTARPEADTHGSPLDFHVYDILETVYTHEKCAVIPSDKQGYVVPCGIVIKLLGRRKADGASVCVNVFGQQAYFYASAPQGLDVEFAVLSALKASTFDRRTPCRVSVEKVTRRSIMGYGNHAGDYHKITLSHPNSVCHVATWLQDKHGCRIFEANVDATRRFVLDNDFVTFGWYSCRRAIPRLQHRDSYAELEYDCEVGDLSVRREDSSWPSYQALAFDIECLGEEGFPTATNEADLILQISCVLWSTGEEAGRYRRILLTLGTCEDIEGVEVYEFPSELDMLYAFFQLIRDLSVEIVTGYNVANFDWPYILDRARHIYSINPASLGKIRAGGVCEVRRPHDAGKGFLRANTKVRITGLIPIDMYAVCRDKLSLSDYKLDTVARHLLGAKKEDVHYKEIPRLFAAGPEGRRRLGMYCVQDSALVMDLLNHFVIHVEVAEIAKIAHIPCRRVLDDGQQIRVFSCLLAAAQKENF
Take B2: the “DNA polymerase activity in vitro” value in data set [1] was “catalytically inactive”. Besides, the “binding to GST-BMRF1(1-303)” value with GST-BMRF1(1-303) is reported as “did not bind”.

B3: ΔC903: BALF5 with deletion of the carboxyl-terminal 112 residues (protein)
chain: MASASLTMSGGLFYNPFLRPNKGLLKKPDKEYLRLIPKCFQTPGAAGVVDVRGPQPPLCFYQDSLTVVGGDEDGKGMWWRQRAQEGTARPEADTHGSPLDFHVYDILETVYTHEKCAVIPSDKQGYVVPCGIVIKLLGRRKADGASVCVNVFGQQAYFYASAPQGLDVEFAVLSALKASTFDRRTPCRVSVEKVTRRSIMGYGNHAGDYHKITLSHPNSVCHVATWLQDKHGCRIFEANVDATRRFVLDNDFVTFGWYSCRRAIPRLQHRDSYAELEYDCEVGDLSVRREDSSWPSYQALAFDIECLGEEGFPTATNEADLILQISCVLWSTGEEAGRYRRILLTLGTCEDIEGVEVYEFPSELDMLYAFFQLIRDLSVEIVTGYNVANFDWPYILDRARHIYSINPASLGKIRAGGVCEVRRPHDAGKGFLRANTKVRITGLIPIDMYAVCRDKLSLSDYKLDTVARHLLGAKKEDVHYKEIPRLFAAGPEGRRRLGMYCVQDSALVMDLLNHFVIHVEVAEIAKIAHIPCRRVLDDGQQIRVFSCLLAAAQKENFILPMPSASDRDGYQGATVIQPLSGFYNSPVLVVDFASLYPSIIQAHNLCYSTMITPGEEHRLAGLRPGEDYESFRLTGGVYHFVKKHVHESFLASLLTSWLAKRKAIKKLLAACEDPRQRTILDKQQLAIKCTCNAVYGFTGVANGLFPCLSIAETVTLQGRTMLERAKAFVEALSPANLQALAPSPDAWAPLNPEGQLRVIYGDTDSLFIECRGFSESETLRFADALAAHTTRSLFVAPISLEAEKTFSCLMLITKKRYVGVLTDGKTLMKGVELVRKTACKFVQTRCRRVLDLVLADARVKEAASLLSHRPFQESFTQGLPVGFLPVIDILNQAYTDLREGRVPMGELCFS
For the molecule B3, the “DNA polymerase activity in vitro” value in data set [1] was “wild-type DNA polymerase activity”. In addition, the “binding to GST-BMRF1(1-303)” value in the data set with GST-BMRF1(1-303) is recorded as “binding was preserved”.

B4: N160: BALF5 with deletion of the amino-terminal 160 residues (protein)
chain: VEFAVLSALKASTFDRRTPCRVSVEKVTRRSIMGYGNHAGDYHKITLSHPNSVCHVATWLQDKHGCRIFEANVDATRRFVLDNDFVTFGWYSCRRAIPRLQHRDSYAELEYDCEVGDLSVRREDSSWPSYQALAFDIECLGEEGFPTATNEADLILQISCVLWSTGEEAGRYRRILLTLGTCEDIEGVEVYEFPSELDMLYAFFQLIRDLSVEIVTGYNVANFDWPYILDRARHIYSINPASLGKIRAGGVCEVRRPHDAGKGFLRANTKVRITGLIPIDMYAVCRDKLSLSDYKLDTVARHLLGAKKEDVHYKEIPRLFAAGPEGRRRLGMYCVQDSALVMDLLNHFVIHVEVAEIAKIAHIPCRRVLDDGQQIRVFSCLLAAAQKENFILPMPSASDRDGYQGATVIQPLSGFYNSPVLVVDFASLYPSIIQAHNLCYSTMITPGEEHRLAGLRPGEDYESFRLTGGVYHFVKKHVHESFLASLLTSWLAKRKAIKKLLAACEDPRQRTILDKQQLAIKCTCNAVYGFTGVANGLFPCLSIAETVTLQGRTMLERAKAFVEALSPANLQALAPSPDAWAPLNPEGQLRVIYGDTDSLFIECRGFSESETLRFADALAAHTTRSLFVAPISLEAEKTFSCLMLITKKRYVGVLTDGKTLMKGVELVRKTACKFVQTRCRRVLDLVLADARVKEAASLLSHRPFQESFTQGLPVGFLPVIDILNQAYTDLREGRVPMGELCFSTELSRKLSAYKSTQMPHLAVYQKFVERNEELPQIHDRIQYVFVEPKGGVKGARKTEMAEDPAYAERHGVPVAVDHYFDKLLQGAANILQCLFDNNSGAALSVLQNFTARPPF
In the case of B4, the “DNA polymerase activity in vitro” value in data set [1] is “catalytically inactive”. In addition, the “binding to GST-BMRF1(1-303)” value in the data set with GST-BMRF1(1-303) is on record as “did not prevent binding”.

B5: WT (1-404): full-length 50-kDa BMRF1 processivity factor subunit of EBV DNA polymerase, SEQ ID NO. 9 (protein)
chain: METTQTLRFKTKALAVLSKCYDHAQTHLKGGVLQVNLLSVNYGGPRLAAVANAGTAGLISFEVSPDAVAEWQNHQSPEEAPAAVSFRNLAYGRTCVLGKELFGSAVEQASLQFYKRPQGGSRPEFVKLTMEYDDKVSKSHHTCALMPYMPPASDRLRNEQMIGQVLLMPKTASSLQKWARQQGSGGVKVTLNPDLYVTTYTSGEACLTLDYKPLSVGPYEAFTGPVAKAQDVGAVEAHVVCSVAADSLAAALSLCRIPAVSVPILRFYRSGIIAVVAGLLTSAGDLPLDLSVILFNHASEEAAASTASEPEDKSPRVQPLGTGLQQRPRHTVSPSPSPPPPPRTPTWESPARPETPSPAIPSHSSNTALERPLAVQLARKRTSSEARQKQKHPKKVKQAFNPLI
modifications: Epstein-Barr Virus
Take B5: the “effect on the low-salt activity of BALF5” value in data set [2] is given as “did not appear to significantly decrease”.

B6: C95E: BMRF1 comprising a C95E mutation, a monomeric form of BMRF1 (protein, UniProt P03191 1-404, looked up, variant C95E)
DNA polymerase processivity …: B5 chain with C95E
Turning to B6, the EBVpol processivity entry in data set [3] is “can still efficiently catalyze EBVpol processivity”.

These data come from patent US9994886B2, “Modified Epstein-Barr virus DNA polymerase and methods for isothermal DNA amplification” (priority 2013, dated 2018).
